Source: article PMC5887453 (Nucleic Acids Research, 2018)

Legend:
Assay in all cases: native gel or EMSA
[1] = molecular target: T1, Pyrococcus horikoshii elongation factor 2 (PhoEF-2), wild type (Pyrococcus horikoshii, UniProt O59521 1-732)
T1 sequence (looked up): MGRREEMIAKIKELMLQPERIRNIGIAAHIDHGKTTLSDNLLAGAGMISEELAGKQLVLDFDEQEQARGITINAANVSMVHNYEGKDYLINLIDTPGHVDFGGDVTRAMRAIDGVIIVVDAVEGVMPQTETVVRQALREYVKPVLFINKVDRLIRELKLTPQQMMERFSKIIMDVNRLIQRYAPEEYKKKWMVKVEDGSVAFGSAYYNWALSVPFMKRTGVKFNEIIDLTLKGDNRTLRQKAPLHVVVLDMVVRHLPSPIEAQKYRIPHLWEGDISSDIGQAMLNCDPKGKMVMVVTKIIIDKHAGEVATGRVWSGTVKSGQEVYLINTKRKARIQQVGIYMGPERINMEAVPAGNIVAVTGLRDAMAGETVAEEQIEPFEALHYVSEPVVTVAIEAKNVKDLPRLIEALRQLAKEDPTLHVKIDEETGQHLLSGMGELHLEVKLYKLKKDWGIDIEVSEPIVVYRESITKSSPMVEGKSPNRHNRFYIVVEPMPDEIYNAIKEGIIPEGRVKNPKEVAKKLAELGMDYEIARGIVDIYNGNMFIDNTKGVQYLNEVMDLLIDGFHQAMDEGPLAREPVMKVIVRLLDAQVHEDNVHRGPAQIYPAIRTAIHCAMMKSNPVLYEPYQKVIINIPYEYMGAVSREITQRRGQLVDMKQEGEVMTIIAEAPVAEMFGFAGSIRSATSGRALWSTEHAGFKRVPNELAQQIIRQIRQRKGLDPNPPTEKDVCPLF

PhoEF-2 F171S = molecular target: T2, PhoEF-2 F171S (Pyrococcus horikoshii, UniProt O59521 1-732, F171S)
T2 sequence (looked up): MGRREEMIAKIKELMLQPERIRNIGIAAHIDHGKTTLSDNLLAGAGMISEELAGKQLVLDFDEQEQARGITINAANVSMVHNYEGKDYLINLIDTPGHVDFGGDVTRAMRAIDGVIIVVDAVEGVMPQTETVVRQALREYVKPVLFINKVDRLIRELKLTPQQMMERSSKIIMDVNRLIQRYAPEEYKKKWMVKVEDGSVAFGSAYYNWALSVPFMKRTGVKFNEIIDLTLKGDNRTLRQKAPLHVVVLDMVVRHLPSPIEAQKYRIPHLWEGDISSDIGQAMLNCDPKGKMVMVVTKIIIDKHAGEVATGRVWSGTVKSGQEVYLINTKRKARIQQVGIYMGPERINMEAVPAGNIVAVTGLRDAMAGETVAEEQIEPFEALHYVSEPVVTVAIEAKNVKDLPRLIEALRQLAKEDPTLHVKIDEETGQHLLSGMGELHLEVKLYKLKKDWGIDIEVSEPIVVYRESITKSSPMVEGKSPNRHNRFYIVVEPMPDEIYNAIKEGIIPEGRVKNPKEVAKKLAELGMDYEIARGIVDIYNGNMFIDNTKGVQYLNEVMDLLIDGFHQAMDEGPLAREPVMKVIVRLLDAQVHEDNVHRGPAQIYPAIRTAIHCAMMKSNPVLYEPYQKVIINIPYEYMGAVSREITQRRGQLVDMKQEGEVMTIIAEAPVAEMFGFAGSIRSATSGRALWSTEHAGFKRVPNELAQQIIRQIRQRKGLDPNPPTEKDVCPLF

PhoEF-2 M167S = molecular target: T3, PhoEF-2 M167S (Pyrococcus horikoshii, UniProt O59521 1-732, M167S)
T3 sequence (looked up): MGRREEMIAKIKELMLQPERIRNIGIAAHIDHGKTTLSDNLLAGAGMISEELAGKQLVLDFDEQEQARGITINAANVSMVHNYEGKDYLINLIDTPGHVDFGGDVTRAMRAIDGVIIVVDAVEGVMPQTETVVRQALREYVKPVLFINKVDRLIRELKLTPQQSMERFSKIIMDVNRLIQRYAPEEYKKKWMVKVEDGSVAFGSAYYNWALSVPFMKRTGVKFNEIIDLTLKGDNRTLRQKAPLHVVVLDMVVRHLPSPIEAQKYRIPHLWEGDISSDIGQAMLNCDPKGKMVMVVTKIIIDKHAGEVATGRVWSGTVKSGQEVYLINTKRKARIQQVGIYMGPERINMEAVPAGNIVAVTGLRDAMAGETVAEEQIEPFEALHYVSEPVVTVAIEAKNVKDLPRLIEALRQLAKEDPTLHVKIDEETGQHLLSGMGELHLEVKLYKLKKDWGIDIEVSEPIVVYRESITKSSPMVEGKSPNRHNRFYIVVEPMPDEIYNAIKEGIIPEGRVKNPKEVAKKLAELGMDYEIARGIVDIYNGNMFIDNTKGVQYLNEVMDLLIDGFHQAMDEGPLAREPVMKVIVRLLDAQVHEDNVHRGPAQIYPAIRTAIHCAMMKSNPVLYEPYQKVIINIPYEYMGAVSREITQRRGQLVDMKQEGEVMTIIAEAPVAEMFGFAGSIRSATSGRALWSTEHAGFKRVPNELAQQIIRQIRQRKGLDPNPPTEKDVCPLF

binding result [1]: binds
binding result (PhoEF-2 F171S): binds
binding result (PhoEF-2 M167S): binds
B1: Pyrococcus horikoshii ribosomal stalk protein P1 (natural protein, UniProt O57705 1-108, looked up)
chain: MEYVYAALLLHSVGKEINEENLKAVLQAAGVEPEEARIKALVAALEGVNIDEVIEKAAMPVAVAAAPAAAPAEAGGEEKKEEEKKEEEEKEEEVSEEEALAGLSALFG
modifications: in the SPR only: biotin on amino groups via a PEG linker (EZ-Link NHS-PEG4-Biotin)
